Measurements: PMC4482583, “The Dimerization State of the Mammalian High Mobility Group Protein AT-Hook 2 (HMGA2)” (PLoS ONE, 2015)
Substitutions are numbered along the chain they refer to. No end group written: not given here. TMR = tetramethylrhodamine-5-maleimide

What was measured:
[1] = molecular target: the molecule itself; assay: cross-linking; EDC (2 mM, zero-length) in MES buffer (10 mM MES, pH 5.5, 50 mM NaCl), 2 hours at 24°C; 29-116 μM protein; 15% SDS-PAGE, Coomassie
[2] = molecular target: the molecule itself; assay: FRET or BRET; 20 nM HMGA2-FM titrated with HMGA2-TMR in 50 mM Tris-HCl (pH 8.0), 200 mM NaCl; excitation 492 nm, read at 518 nm
[3] = molecular target: the molecule itself; assay: cross-linking; EDC cross-linking of the cysteineless mutant; data not shown
HMGA2Δ95–108 = molecular target: T1, HMGA2Δ95–108 (mouse, UniProt P52927 1-94); assay: SEC; CTP-TMR incubated with HMGA2Δ95–108 for 30 minutes at 24°C, resolved on Sephacryl S-100 HR (1×50 cm) in BPES buffer; OD556 and SDS-PAGE of fractions; conditions: both partners purified
T1 construct: also called mutant that lacks the negatively charged C-terminus; source: made by PCR-based site directed mutagenesis, purified as described previously [26]
T1 sequence (looked up): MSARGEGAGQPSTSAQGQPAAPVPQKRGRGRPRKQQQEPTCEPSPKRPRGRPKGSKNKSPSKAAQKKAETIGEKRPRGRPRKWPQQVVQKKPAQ

B1: mammalian high mobility group protein AT-hook 2 (HMGA2) (natural protein, mouse, UniProt P52927 1-108, looked up)
chain: MSARGEGAGQPSTSAQGQPAAPVPQKRGRGRPRKQQQEPTCEPSPKRPRGRPKGSKNKSPSKAAQKKAETIGEKRPRGRPRKWPQQVVQKKPAQETEETSSQESAEED
notes: also called mouse HMGA2; recombinant HMGA2; source: recombinant, purified as described previously [26]
stoichiometry N [1]: 2

B2: HMGA2 labeled with fluorescein-5-maleimide (HMGA2-FM) or tetramethylrhodamine-5-maleimide (HMGA2-TMR) (natural protein, mouse, UniProt P52927 1-108, looked up)
chain: B1 chain
modifications: fluorescein-5-maleimide (FM) or tetramethylrhodamine-5-maleimide (TMR) on the cysteine residue
notes: labeled at its one cysteine residue; also called HMG-TMR; source: recombinant HMGA2, labeled with TMR or FM, purified (Sephadex G-50 spin columns, dialysis)
stoichiometry N [2]: 2

B3: HMGA2C41G (natural protein, mouse, UniProt P52927 1-108, looked up)
chain: B1 chain with C41G
notes: also called cysteineless mutant protein; source: made by PCR-based site directed mutagenesis, purified as described previously [26]
stoichiometry N [3]: 2

B4: C-terminal peptide (CTP) of HMGA2 labeled with tetramethylrhodamine-5-maleimide (CTP-TMR) (peptide)
peptide: C(TMR)ETEETSSQESAEED
notes: first residue of the printed peptide H-CETEETSSQESAEED-OH; the cysteine that carries the label; the negatively charged C-terminus of HMGA2, mouse; 14 residues; also called the C-terminal peptide; source: synthetic peptide (custom-synthesized by Advanced ChemTech, Inc.), labeled with TMR, purified on SP-sepharose
binding result (HMGA2Δ95–108): binds
